This test has as its target T1, p300 (mouse, UniProt B2RWS6 2-2412).
T1 construct: whole, on cells; Endogenous protein inside fixed, permeabilised LPS-stimulated mouse spleen B cells; It was detected through a DNA barcode-labeled antibody (clone RW128)
In words: joining PCR of DNA barcode-labeled antibodies in hydrogel with NGS; LPS-stimulated mouse spleen B cells.

T1 sequence (B2RWS6 2-2412): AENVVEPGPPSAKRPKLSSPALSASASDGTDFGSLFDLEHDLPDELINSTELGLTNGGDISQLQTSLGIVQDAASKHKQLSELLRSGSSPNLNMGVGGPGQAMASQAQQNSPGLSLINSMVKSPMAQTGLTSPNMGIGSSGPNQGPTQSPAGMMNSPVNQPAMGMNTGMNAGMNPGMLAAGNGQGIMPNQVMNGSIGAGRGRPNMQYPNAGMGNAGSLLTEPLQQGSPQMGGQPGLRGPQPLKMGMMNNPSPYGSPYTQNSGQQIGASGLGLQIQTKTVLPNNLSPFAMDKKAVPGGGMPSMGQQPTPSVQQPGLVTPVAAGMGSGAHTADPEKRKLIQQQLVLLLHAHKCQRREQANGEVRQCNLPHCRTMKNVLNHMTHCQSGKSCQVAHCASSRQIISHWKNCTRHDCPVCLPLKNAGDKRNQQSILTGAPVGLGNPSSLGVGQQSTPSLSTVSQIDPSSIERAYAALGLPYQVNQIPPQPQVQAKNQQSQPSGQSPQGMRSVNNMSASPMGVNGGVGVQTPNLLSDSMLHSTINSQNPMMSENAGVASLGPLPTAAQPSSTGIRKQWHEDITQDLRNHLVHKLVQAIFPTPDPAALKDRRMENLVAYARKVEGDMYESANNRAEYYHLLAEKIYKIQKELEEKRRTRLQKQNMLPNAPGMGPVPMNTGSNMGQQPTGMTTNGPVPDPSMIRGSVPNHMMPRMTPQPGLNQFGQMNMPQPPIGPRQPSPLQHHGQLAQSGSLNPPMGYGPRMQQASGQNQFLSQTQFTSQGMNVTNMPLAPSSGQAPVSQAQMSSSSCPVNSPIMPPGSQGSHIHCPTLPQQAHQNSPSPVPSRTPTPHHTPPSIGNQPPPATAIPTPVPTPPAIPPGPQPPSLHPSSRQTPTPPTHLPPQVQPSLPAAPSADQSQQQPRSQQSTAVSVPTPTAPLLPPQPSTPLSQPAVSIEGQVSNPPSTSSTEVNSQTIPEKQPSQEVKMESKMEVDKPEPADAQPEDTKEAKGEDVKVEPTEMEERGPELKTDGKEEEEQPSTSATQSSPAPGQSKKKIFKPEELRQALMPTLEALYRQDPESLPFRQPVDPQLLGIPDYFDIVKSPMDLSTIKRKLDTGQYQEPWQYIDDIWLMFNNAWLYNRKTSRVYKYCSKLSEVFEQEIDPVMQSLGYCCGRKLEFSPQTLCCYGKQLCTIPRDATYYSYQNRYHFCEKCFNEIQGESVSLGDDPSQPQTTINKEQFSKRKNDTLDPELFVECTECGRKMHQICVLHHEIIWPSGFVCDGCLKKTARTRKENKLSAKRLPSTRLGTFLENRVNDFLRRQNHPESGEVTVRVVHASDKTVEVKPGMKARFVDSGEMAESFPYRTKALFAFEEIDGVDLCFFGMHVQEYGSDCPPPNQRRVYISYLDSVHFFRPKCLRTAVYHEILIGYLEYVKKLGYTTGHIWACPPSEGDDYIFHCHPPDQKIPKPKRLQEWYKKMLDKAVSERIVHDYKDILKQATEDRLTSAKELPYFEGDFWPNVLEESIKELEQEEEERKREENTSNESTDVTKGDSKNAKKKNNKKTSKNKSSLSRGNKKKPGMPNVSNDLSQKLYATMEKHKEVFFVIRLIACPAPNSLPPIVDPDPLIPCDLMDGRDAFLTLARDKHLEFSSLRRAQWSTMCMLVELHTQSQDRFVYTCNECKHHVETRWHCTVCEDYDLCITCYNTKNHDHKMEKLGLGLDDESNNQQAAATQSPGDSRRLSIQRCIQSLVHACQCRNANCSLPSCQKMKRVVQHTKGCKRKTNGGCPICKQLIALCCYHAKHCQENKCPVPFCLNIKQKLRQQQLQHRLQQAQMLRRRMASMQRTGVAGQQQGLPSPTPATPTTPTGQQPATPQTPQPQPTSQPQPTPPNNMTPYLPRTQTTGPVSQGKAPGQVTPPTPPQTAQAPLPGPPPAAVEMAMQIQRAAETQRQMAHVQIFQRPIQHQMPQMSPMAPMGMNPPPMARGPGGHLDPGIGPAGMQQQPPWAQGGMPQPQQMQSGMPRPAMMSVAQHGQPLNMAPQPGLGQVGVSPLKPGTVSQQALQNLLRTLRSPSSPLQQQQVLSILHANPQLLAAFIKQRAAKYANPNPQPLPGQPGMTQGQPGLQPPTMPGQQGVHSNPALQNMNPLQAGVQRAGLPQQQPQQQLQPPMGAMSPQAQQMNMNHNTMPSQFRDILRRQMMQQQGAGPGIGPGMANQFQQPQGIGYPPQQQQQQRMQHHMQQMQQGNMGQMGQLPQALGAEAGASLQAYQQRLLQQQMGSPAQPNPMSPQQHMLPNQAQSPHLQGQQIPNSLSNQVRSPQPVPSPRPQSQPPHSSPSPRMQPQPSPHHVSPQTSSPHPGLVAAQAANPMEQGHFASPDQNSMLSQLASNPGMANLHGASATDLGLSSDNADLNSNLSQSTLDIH
Protocol: B cells collected from mouse spleen were suspended in serum-free medium. The cells were seeded on each well of fluororesin-coated glass slides (super hydrophobic printed glass slides, 10 wells, 6 mm diameter, Matsunami Glass Ind., Ltd., Cat. No. TF1006, see FIG. 6) with an adjusted density of 5000 cells/30 μL per circle. The cells were cultured in 5% CO₂ at 37° C. for 30 minutes, and the culture supernatant was removed. […] The cells were cultured in 5% CO₂ at 37° C. for 24 hours. IL-4 was used as stimulation for B-cell activation.
The joining PCR of the antibody barcodes that come in close proximity was performed using Mastercycler nexus flat (trade-name) (Eppendorf) PCR cycler. […] The PCR reaction was performed through a program consisting of six steps: step 1: 95° C., 2 minutes; step 2: (95° C., 30 seconds and 68° C., 1 minute)×10 cycles; step 3: (95° C., 30 seconds, 55° C., 30 seconds and 68° C., 1 minute)×2 cycles; step 4: (95° C., 30 seconds, 60° C., 30 seconds and 68° C., 1 minute)×16 cycles; step 5: 68° C., 1 minute; and step 6: 4° C., infinity. The samples after completion of the PCR reaction were stored at −20° C.

B1: Lamin B1 (other, mouse, UniProt P14733 2-585, looked up)
chain: ATATPVQQQRAGSRASAPATPLSPTRLSRLQEKEELRELNDRLAVYIDKVRSLETENSALQLQVTEREEVRGRELTGLKALYETELADARRALDDTARERAKLQIELGKFKAEHDQLLLNYAKKESDLSGAQIKLREYEAALNSKDAALATALGDKKSLEGDLEDLKDQIAQLEASLSAAKKQLADETLLKVDLENRCQSLTEDLEFRKNMYEEEINETRRKHETRLVEVDSGRQIEYEYKLAQALHEMREQHDAQVRLYKEELEQTYHAKLENARLSSEMNTSTVNSAREELMESRMRIESLSSQLSNLQKESRACLERIQELEDMLAKERDNSRRMLSDREREMAEIRDQMQQQLSDYEQLLDVKLALDMEISAYRKLLEGEEERLKLSPSPSSRVTVSRASSSRSVRTTRGKRKRVDVEESEASSSVSISHSASATGNVCIEEIDVDGKFIRLKNTSEQDQPMGGWEMIRKIGDTSVSYKYTSRYVLKAGQTVTVWAANAGVTASPPTDLIWKNQNSWGTGEDVKVILKNSQGEEVAQRSTVFKTTIPEEEEEEEEEPIGVAVEEERFHQQGAPRASNKSC
notes: whole, on cells; Endogenous protein inside fixed, permeabilised LPS-stimulated mouse spleen B cells; It was detected through a DNA barcode-labeled antibody (clone L-5)
Take B1: the binding result is on record as “binds”.
